Reference: patent US10500249B2, “Compositions and methods for preventing or treating diseases, conditions, or processes characterized by aberrant fibroblast proliferation and extracellular matrix deposition” (MOERAE MATRIX, INC., priority 2014, dated 2019)

Key:
Test in all cases: Kinase Profiling Assay
Assay type in all cases: biochemical
Conditions in all cases: 100 μM
DYRK2 (h) = target: T1, DYRK2 (h) (Homo sapiens, UniProt Q92630)
T1 construct: purchased Millipore
T1 sequence (Q92630 1-601): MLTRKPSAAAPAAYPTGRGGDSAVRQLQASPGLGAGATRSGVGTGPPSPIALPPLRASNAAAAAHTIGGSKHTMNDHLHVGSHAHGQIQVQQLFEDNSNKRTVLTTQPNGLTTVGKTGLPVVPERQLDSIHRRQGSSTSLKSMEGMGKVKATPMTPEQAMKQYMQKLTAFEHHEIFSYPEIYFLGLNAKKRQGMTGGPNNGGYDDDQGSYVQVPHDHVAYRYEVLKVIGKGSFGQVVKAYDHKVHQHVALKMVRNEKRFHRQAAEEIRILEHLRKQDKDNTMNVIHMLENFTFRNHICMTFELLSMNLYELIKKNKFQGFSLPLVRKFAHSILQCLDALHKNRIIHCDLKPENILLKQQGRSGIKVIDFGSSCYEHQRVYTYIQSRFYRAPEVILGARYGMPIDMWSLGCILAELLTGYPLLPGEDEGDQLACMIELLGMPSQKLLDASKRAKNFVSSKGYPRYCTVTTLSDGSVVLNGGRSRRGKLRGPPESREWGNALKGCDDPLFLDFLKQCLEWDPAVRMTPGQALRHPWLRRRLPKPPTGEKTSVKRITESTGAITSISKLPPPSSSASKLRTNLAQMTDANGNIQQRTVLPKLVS
Method in brief: (§1)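 Each kinase activity was measured in duplicate. Phosphorylation of a positively charged substrate with radiolabeled phosphate from ATP was captured on a negatively charged filter, counted by scintillation and expressed relative to a 100% activity control. MK2 inhibitory peptides were screened for specificity across 266 human kinases.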

Tec (h) activated = target: T2, Tec (h) activated (Homo sapiens, UniProt P42680)
T2 sequence (P42680 1-631): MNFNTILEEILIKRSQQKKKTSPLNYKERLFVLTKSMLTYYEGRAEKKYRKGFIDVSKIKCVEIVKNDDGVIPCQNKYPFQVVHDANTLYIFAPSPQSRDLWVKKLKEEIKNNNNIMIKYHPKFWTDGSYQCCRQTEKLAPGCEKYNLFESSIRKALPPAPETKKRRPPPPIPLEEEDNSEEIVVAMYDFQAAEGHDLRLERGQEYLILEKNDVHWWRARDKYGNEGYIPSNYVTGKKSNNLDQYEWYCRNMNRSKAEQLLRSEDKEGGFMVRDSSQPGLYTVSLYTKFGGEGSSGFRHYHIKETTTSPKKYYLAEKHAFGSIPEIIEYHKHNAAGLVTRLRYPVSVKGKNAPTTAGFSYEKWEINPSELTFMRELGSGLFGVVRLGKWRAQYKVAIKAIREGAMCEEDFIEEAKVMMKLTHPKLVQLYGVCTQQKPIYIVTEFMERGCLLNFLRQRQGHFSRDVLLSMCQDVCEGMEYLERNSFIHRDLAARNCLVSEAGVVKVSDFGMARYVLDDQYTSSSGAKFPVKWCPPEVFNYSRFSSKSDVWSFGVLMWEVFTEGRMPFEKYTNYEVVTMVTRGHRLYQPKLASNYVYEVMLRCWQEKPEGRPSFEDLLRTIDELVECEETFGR
Method in brief: as §1

BrSK1 (h) = target: T3, BrSK1 (h) (Homo sapiens, UniProt Q8TDC3)
T3 sequence (Q8TDC3 1-778): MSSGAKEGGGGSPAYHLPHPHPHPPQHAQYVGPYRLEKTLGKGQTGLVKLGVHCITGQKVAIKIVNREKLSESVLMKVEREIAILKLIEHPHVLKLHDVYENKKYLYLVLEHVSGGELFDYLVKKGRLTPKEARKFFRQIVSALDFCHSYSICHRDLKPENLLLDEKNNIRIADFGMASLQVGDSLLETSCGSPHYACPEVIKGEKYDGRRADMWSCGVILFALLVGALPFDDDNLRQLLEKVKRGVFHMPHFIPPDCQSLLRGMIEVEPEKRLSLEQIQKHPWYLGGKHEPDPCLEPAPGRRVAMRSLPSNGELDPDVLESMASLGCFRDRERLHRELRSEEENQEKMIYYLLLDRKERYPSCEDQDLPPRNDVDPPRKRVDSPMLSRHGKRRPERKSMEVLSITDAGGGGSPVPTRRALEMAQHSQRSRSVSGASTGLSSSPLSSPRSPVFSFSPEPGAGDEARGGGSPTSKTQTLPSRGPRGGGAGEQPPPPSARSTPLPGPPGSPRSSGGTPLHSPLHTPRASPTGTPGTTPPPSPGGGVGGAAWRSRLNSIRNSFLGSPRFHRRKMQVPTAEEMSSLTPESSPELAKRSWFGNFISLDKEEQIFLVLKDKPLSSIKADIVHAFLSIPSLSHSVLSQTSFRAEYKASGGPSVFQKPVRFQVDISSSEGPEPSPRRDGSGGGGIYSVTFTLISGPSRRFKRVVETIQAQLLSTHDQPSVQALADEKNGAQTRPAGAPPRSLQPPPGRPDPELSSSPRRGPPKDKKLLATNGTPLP
Method in brief: as §1

IR (h), activated = target: T4, IR (h), activated (Homo sapiens, UniProt P06213)
T4 construct: purchased Millipore
Method in brief: as §1

IR (h) = target: T5, IR (h) (Homo sapiens, UniProt P06213)
T5 construct: purchased Millipore
Method in brief: as §1

GRK6 (h) = target: T6, GRK6 (h) (Homo sapiens, UniProt P43250)
T6 construct: purchased Millipore
Method in brief: as §1

PKCβII (h) = target: T7, PKCβII (h) (Homo sapiens, UniProt P05771)
T7 construct: purchased Millipore
Method in brief: as §1

Flt4 (h) = Flt4 (h) (Homo sapiens, UniProt P35916)
Method in brief: as §1

Sequence of Flt4 (h) (P35916 25-1363): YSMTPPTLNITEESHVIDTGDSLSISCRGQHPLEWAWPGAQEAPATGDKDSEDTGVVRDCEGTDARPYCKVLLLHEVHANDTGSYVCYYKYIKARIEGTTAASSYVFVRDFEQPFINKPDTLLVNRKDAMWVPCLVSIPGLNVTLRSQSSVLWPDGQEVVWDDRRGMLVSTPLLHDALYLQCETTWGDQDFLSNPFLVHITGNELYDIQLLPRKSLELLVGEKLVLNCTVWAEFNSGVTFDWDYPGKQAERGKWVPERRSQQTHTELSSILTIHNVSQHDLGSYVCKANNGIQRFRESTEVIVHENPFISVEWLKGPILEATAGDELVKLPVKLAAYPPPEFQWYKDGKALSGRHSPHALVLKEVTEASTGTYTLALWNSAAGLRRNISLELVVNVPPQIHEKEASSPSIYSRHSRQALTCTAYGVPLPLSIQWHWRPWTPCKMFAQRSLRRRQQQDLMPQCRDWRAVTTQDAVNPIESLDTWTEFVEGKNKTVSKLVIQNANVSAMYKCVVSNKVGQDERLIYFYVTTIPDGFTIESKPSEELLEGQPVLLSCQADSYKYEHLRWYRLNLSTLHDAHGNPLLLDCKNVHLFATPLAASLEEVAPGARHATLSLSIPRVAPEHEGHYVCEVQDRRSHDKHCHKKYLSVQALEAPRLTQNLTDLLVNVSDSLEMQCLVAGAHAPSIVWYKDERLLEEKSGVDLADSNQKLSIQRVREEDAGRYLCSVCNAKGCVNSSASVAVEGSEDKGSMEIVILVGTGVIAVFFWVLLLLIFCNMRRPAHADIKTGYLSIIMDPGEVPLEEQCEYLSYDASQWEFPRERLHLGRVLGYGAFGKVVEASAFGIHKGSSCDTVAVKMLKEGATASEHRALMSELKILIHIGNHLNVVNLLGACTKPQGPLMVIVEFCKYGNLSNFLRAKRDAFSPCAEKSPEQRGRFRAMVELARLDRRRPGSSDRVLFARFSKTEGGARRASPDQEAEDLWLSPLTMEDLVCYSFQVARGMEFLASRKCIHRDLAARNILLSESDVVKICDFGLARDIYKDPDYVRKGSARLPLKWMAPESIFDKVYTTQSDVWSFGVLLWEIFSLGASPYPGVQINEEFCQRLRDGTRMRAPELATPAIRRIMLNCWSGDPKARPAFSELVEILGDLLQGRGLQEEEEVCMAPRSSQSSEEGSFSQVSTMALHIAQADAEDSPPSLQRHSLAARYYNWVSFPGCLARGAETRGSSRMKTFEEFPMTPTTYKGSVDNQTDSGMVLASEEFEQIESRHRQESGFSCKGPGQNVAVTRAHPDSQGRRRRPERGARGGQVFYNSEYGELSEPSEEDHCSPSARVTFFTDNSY
T7 sequence (P05771 1-673 isoform P05771-2): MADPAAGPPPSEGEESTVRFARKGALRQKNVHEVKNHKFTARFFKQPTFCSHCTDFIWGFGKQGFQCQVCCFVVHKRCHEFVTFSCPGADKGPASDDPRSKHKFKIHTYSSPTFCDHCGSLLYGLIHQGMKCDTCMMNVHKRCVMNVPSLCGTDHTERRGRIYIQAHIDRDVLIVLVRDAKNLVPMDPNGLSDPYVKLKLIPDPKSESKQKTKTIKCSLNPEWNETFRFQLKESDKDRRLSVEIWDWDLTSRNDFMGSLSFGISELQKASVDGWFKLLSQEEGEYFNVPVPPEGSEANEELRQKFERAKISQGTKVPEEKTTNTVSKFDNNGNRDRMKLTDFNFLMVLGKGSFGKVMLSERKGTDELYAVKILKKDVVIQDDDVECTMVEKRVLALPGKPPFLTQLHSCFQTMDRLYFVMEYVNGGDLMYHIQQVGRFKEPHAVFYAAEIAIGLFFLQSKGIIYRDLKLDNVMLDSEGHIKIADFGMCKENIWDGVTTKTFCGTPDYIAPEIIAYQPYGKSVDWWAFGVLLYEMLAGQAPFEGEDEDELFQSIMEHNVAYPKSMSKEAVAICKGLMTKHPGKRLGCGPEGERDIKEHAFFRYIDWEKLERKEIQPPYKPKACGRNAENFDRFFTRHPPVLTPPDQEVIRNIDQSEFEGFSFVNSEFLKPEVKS
T6 sequence (P43250 whole entry): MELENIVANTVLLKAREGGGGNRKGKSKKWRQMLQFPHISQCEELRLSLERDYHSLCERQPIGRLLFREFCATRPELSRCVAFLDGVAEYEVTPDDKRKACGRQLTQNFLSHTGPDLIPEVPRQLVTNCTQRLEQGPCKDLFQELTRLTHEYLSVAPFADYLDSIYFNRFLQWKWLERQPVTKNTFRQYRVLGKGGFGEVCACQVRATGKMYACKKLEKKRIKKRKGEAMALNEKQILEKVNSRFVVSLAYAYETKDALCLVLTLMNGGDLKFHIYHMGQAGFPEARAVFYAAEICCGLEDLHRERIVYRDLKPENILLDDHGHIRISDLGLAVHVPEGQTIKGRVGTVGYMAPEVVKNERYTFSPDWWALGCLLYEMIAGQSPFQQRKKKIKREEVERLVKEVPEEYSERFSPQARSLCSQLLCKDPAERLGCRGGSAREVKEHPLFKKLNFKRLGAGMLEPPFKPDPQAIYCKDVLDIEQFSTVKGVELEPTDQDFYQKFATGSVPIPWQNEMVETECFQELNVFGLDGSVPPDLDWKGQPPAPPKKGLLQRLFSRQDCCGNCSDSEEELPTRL

Sequence | % activity (DYRK2 (h)) | % activity (Tec (h) activated) | % activity (BrSK1 (h)) | % activity (IR (h), activated) | % activity (IR (h)) | % activity (GRK6 (h)) | % activity (PKCβII (h)) | % activity (Flt4 (h))
FAKLAARLYRKALARQLGVAA [MMI-0300] | 155% | 56% | 67% | 79% | 96% | 147% | 82% | 83%
HRRIKAWLKKIKALARQLGVAA (Mammalian) [MMI-0500] | 127% | 33% | 72% | 90% | 95% | 174% | 3% | 73%
KAFAKLAARLYRKALARQLGVAA [MMI-0400] | 195% | 29% | 76% | 59% | 85% | 141% | 75% | 89%
YARAAARQARAKALNRQLGVA (Mammalian) [MMI-0200] | 142% | 77% | 93% |  | 90% | 132% | 100% | 
